Results on two substances are retold here after article PMC3393671.

Assay [1] concerns the target ROP5 of T. gondii strain RH-YFP (isoforms not told apart) (UniProt F2YGR7). Kind of assay: pull-down (quantitated Western blot). The note with it: 25 µg protein/100 µl 1:1 bead suspension; RH-YFP strain T. gondii lysates; 3E2 antibody (anti-ROP5); GST signal subtracted; parent: est. 100; read off a plot. (Immunoblotting shows a protein as a band on a membrane.)
The target of assay [2] is GST-Irga6-D164A (mouse) (UniProt Q9QZ85). Kind of assay: pull-down; GST-IRG fusion (25 or 50 µg per 100 µl 1:1 bead suspension) on Glutathione Sepharose 4B; postnuclear NP-40 lysate of RH-YFP T. gondii; o/n at 4°C; with or without 1 mM GDP; Western blot with mAb 3E2 (ROP5) or anti-ROP18 antiserum; GST-loaded beads as control.
Sequence of GST-Irga6-D164A (mouse) (Q9QZ85 1-411 D164A): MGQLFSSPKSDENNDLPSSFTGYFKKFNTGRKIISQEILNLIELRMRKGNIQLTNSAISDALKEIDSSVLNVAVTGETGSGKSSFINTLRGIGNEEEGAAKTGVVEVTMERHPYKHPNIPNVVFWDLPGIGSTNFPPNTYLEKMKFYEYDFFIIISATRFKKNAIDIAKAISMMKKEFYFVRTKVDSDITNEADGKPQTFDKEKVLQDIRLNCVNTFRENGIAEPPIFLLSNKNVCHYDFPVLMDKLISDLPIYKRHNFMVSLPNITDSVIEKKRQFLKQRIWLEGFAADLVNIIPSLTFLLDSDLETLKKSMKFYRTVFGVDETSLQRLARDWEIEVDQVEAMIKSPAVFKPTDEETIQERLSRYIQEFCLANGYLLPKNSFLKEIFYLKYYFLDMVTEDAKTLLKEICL

Sequence of ROP5 of T. gondii strain RH-YFP (isoforms not told apart) (UniProt F2YGR7) (F2YGR7 25-549): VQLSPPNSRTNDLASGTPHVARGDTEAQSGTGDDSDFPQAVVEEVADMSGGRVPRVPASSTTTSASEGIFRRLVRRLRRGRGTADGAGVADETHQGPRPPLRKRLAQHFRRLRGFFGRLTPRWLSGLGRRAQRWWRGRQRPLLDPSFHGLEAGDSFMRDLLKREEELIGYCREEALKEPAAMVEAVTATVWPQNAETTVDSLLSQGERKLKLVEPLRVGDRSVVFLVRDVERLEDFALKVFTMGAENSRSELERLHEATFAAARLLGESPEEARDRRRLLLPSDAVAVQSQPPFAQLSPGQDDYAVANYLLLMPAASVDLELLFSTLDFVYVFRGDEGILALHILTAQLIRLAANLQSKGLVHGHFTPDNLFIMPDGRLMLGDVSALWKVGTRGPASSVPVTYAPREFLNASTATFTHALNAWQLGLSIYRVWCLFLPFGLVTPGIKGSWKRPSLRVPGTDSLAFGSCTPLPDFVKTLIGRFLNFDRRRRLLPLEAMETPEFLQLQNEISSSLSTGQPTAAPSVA
Sequence of ROP5 of T. gondii strain RH-YFP (isoforms not told apart) (from UniProt F2YGR7 25-549) (natural protein) (F2YGR7 25-549): as above
Sequence of GST-Irga6 (Q9QZ85 1-411, stated change not applied): as the sequence (Q9QZ85 1-411 D164A) above, with A164D counted along it

GST-Irga6 (from UniProt Q9QZ85) D206R: the percent of parent (% of wild-type intensity) in assay [1] stood at 68. In turn, “ROP5 of T. gondii strain RH-YFP (isoforms not told apart) (from UniProt F2YGR7 25-549) (natural protein)” displayed a percent of ROP5 binding blocked (against wt GST-Irga6) in assay [2] above 95%.
